From doi:10.1101/2023.05.01.538945 come the findings set out here.

The stoichiometry N is a count of units in the complex or per binding partner.

For assay [1], the target named is Bacillus cereus VD045 GajB (Gabija protein B), untagged, co-expressed with GajA (Bacillus cereus VD045) (UniProt J8HQ06). The assay can be described thus: crystal structure.
The target of assay [2] is Bacillus phage Phi3T Gabija anti-defense 1 (Gad1) (Bacillus phage Phi3T). Kind of assay: cryo-EM structure.
In assay [3] the target is SUMO2-tagged Bacillus cereus VD045 GajAB complex (Bacillus cereus VD045) (UniProt J8H9C1). Kind of assay: cryo-EM structure.
Sequence of SUMO2-tagged Bacillus cereus VD045 GajAB complex (Bacillus cereus VD045) (J8H9C1 2-578, chain 1 of 2): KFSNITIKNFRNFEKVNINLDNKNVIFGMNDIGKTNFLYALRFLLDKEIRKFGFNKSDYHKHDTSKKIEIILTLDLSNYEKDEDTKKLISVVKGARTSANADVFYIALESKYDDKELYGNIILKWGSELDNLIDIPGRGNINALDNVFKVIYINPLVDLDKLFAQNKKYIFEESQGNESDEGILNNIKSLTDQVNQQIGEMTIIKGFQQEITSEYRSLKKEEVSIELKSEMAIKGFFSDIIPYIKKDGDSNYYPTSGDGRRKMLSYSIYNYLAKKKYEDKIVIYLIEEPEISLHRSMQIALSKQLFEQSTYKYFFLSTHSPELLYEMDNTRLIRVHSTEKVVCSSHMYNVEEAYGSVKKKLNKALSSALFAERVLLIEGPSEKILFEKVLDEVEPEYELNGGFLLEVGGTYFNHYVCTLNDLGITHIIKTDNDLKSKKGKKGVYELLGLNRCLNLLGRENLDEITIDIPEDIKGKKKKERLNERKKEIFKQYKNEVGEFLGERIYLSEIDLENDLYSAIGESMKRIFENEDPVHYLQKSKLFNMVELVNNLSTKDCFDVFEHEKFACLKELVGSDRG
Sequence of SUMO2-tagged Bacillus cereus VD045 GajAB complex (Bacillus cereus VD045) (J8HQ06 2-494, chain 2 of 2, further chain): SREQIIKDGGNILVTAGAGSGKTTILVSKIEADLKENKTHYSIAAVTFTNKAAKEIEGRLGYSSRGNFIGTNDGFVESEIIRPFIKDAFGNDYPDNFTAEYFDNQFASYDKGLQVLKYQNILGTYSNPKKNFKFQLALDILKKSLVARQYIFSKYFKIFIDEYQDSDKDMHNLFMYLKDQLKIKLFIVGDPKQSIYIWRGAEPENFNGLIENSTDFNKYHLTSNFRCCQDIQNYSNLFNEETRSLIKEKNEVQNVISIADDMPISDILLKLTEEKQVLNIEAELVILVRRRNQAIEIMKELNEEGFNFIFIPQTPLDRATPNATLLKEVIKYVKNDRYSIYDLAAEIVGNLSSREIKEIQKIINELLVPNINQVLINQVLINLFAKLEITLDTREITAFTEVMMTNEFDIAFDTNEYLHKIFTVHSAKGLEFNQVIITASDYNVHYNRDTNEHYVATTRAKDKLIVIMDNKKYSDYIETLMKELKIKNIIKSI

Sequence of Bacillus phage Phi3T Gabija anti-defense 1 (Gad1) (natural protein) (A0A1P8CWZ3 whole entry): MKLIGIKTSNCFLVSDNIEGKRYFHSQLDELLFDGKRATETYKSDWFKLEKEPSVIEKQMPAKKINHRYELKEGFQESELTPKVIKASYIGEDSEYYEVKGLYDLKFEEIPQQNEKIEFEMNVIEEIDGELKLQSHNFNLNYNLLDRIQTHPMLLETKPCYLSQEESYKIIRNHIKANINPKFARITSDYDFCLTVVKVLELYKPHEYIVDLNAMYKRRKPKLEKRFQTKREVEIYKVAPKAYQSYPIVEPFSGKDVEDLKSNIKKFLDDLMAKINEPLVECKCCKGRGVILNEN

“Bacillus cereus VD045 GajB (Gabija protein B), untagged, co-expressed with GajA (from UniProt J8HQ06 2-494) (enzyme)”: the stoichiometry N in assay [1] stood at 2.

For “Bacillus phage Phi3T Gabija anti-defense 1 (Gad1) (natural protein)”, the stoichiometry N in assay [2] was 8. This substance also returned a stoichiometry N (Gad1 per 4:4 GajAB assembly) in assay [3] of 8.
